In this test the target is T1, CD3 epsilon homodimer protein (UniProt P07766 23-126).
T1 construct: also called CD3 (CD3 epsilon)
In words: SPR Biacore T200, antibody over immobilised CD3e homodimer.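 Further: CD3 epsilon homodimer amine-coupled on a CM4 chip, run at 25 °C in HBS-EP+, Z = bound amount of each single-residue H chain variant over that of the parent antibody.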 In general terms: In SPR one partner is held on a chip, and binding of the other changes the refractive index at the surface.

Residue numbers refer to the chain shown, from its start. Names may count otherwise.

T1 sequence (P07766 23-126): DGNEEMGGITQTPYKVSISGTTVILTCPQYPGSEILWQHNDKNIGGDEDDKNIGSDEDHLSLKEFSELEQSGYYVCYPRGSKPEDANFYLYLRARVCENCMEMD

B1: CE115HA000 D73G one-arm antibody (antibody, human IgG1, kappa, L234A L235A, N297A, name in Kabat numbering)
heavy: QVQLVESGGGVVQPGRSLRLSCAASGFTFSNAWMHWVRQAPGKGLEWVAQIKAKSNNYATYYAESVKGRFTISRDGSKNSLYLQMNSLKTEDTAVYYCRYVHYGAYYGVDAWGQGTTVTVSSASTKGPSVFPLAPSSKSTSGGTAALGCLVKDYFPEPVTVSWNSGALTSGVHTFPAVLQSSGLYSLSSVVTVPSSSLGTQTYICNVNHKPSNTKVDKKVEPKSCDKTHTCPPCPAPEAAGGPSVFLFPPKPKDTLMISRTPEVTCVVVDVSHEDPEVKFNWYVDGVEVHNAKTKPREEQYASTYRVVSVLTVLHQDWLNGKEYKCKVSNKALPAPIEKTISKAKGQPREPQVYTLPPSRCELTKNQVSLSCAVKGFYPSDIAVEWESNGQPENNYKTTPPVLDSDGSFFLVSKLTVDKSRWQQGNVFSCSVMHEALHNHYTQKSLSLSPDYKDDDDK
chain: EPKSSDKTHTCPPCPAPELLGGPSVFLFPPKPKDTLMISRTPEVTCVVVDVSHEDPEVKFNWYVDGVEVHNAKTKPREEQYNSTYRVVSVLTVLHQDWLNGKEYKCKVSNKALPAPIEKTISKAKGQPREPQVCTLPPSRDELTKNQVSLWCLVKGFYPSDIAVEWESNGQPENNYKTTPPVLDSDGSFFLYSKLTVDKSRWQQGNVFSCSVMHEALHNRYTQKSLSLSP
light: DIVMTQSPLSLPVTPGEPASISCRSSQSLVHSNRNTYLHWYQQKPGQAPRLLIYKVSNRFSGVPDRFSGSGSGTDFTLKISRVEAEDVGVYYCGQGTQVPYTFGQGTKLEIKRTVAAPSVFIFPPSDEQLKSGTASVVCLLNNFYPREAKVQWKVDNALQSGNSQESVTEQDSKDSTYSLSSTLTLSKADYEKHKVYACEVTHQGLSSPVTKSFNRGEC
notes: one-arm antibody
On to B1, for which the “ratio of amounts bound (Z=Y/X vs CE115HA000)” value (“ratio of amounts bound” for short) amounted to 1.07.

B2: CE115HA000 H35L one-arm antibody (antibody, human IgG1, kappa, L234A L235A, N297A, name in Kabat numbering)
heavy: B1 heavy with H35L, G76D
chain: B1 chain
light: B1 light
notes: one-arm antibody
B2: the “ratio of amounts bound” value is 0.11.

B3: CE115HA000 H35V one-arm antibody (antibody, human IgG1, kappa, L234A L235A, N297A, name in Kabat numbering)
heavy: B1 heavy with H35V, G76D
chain: B1 chain
light: B1 light
notes: one-arm antibody
For the molecule B3, the “ratio of amounts bound” value turned out to be 0.22.

B4: CE115HA000 H35I one-arm antibody (antibody, human IgG1, kappa, L234A L235A, N297A, name in Kabat numbering)
heavy: B1 heavy with H35I, G76D
chain: B1 chain
light: B1 light
notes: one-arm antibody
B4: the “ratio of amounts bound” value turned out to be 0.12.

B5: CE115HA000 H35T one-arm antibody (antibody, human IgG1, kappa, L234A L235A, N297A, name in Kabat numbering)
heavy: B1 heavy with H35T, G76D
chain: B1 chain
light: B1 light
notes: one-arm antibody
As for B5, the “ratio of amounts bound” value was 0.26.

B6: CE115HA000 K52I one-arm antibody (antibody, human IgG1, kappa, L234A L235A, N297A, name in Kabat numbering)
heavy: B1 heavy with K52I, G76D
chain: B1 chain
light: B1 light
notes: one-arm antibody
Turning to B6, the “ratio of amounts bound” value turned out to be 0.33.

B7: CE115HA000 K43Q one-arm antibody (antibody, human IgG1, kappa, L234A L235A, N297A, name in Kabat numbering)
heavy: B1 heavy with K43Q, G76D
chain: B1 chain
light: B1 light
notes: one-arm antibody
For the molecule B7, the “ratio of amounts bound” value is 0.99.

B8: CE115HA000 H35F one-arm antibody (antibody, human IgG1, kappa, L234A L235A, N297A, name in Kabat numbering)
heavy: B1 heavy with H35F, G76D
chain: B1 chain
light: B1 light
notes: one-arm antibody
In the case of B8, the “ratio of amounts bound” value worked out at 0.21.

B9: CE115HA000 H35Y one-arm antibody (antibody, human IgG1, kappa, L234A L235A, N297A, name in Kabat numbering)
heavy: B1 heavy with H35Y, G76D
chain: B1 chain
light: B1 light
notes: one-arm antibody
In the case of B9, the “ratio of amounts bound” value was 0.16.

B10: CE115HA000 H35E one-arm antibody (antibody, human IgG1, kappa, L234A L235A, N297A, name in Kabat numbering)
heavy: B1 heavy with H35E, G76D
chain: B1 chain
light: B1 light
notes: one-arm antibody
As to B10, the “ratio of amounts bound” value was 0.19.

B11: CE115HA000 H35Q one-arm antibody (antibody, human IgG1, kappa, L234A L235A, N297A, name in Kabat numbering)
heavy: B1 heavy with H35Q, G76D
chain: B1 chain
light: B1 light
notes: one-arm antibody
B11: the “ratio of amounts bound” value stood at 0.13.

B12: CE115HA000 H35M one-arm antibody (antibody, human IgG1, kappa, L234A L235A, N297A, name in Kabat numbering)
heavy: B1 heavy with H35M, G76D
chain: B1 chain
light: B1 light
notes: one-arm antibody
For the molecule B12, the “ratio of amounts bound” value was determined as 0.29.

B13: CE115HA000 G65E one-arm antibody (antibody, human IgG1, kappa, L234A L235A, N297A, name in Kabat numbering)
heavy: B1 heavy with G68E, G76D
chain: B1 chain
light: B1 light
notes: one-arm antibody
B13: the “ratio of amounts bound” value was found to be 0.78.

B14: CE115HA000 E61A one-arm antibody (antibody, human IgG1, kappa, L234A L235A, N297A, name in Kabat numbering)
heavy: B1 heavy with E64A, G76D
chain: B1 chain
light: B1 light
notes: one-arm antibody
For B14, the “ratio of amounts bound” value is 1.09.

B15: CE115HA000 D73K one-arm antibody (antibody, human IgG1, kappa, L234A L235A, N297A, name in Kabat numbering)
heavy: B1 heavy with G76K
chain: B1 chain
light: B1 light
notes: one-arm antibody
Consider B15, for which the “ratio of amounts bound” value was found to be 0.87.

B16: CE115HA000 H35W one-arm antibody (antibody, human IgG1, kappa, L234A L235A, N297A, name in Kabat numbering)
heavy: B1 heavy with H35W, G76D
chain: B1 chain
light: B1 light
notes: one-arm antibody
As to B16, the “ratio of amounts bound” value was 0.22.

B17: CE115HA000 E61D one-arm antibody (antibody, human IgG1, kappa, L234A L235A, N297A, name in Kabat numbering)
heavy: B1 heavy with E64D, G76D
chain: B1 chain
light: B1 light
notes: one-arm antibody
With B17, the “ratio of amounts bound” value was 0.91.

B18: CE115HA000 K43E one-arm antibody (antibody, human IgG1, kappa, L234A L235A, N297A, name in Kabat numbering)
heavy: B1 heavy with K43E, G76D
chain: B1 chain
light: B1 light
notes: one-arm antibody
In the case of B18, the “ratio of amounts bound” value is 0.9.

B19: CE115HA000 H35S one-arm antibody (antibody, human IgG1, kappa, L234A L235A, N297A, name in Kabat numbering)
heavy: B1 heavy with H35S, G76D
chain: B1 chain
light: B1 light
notes: one-arm antibody
With B19, the “ratio of amounts bound” value amounted to 0.23.

B20: CE115HA000 K52F one-arm antibody (antibody, human IgG1, kappa, L234A L235A, N297A, name in Kabat numbering)
heavy: B1 heavy with K52F, G76D
chain: B1 chain
light: B1 light
notes: one-arm antibody
Consider B20, for which the “ratio of amounts bound” value was 0.17.

B21: CE115HA000 K52D one-arm antibody (antibody, human IgG1, kappa, L234A L235A, N297A, name in Kabat numbering)
heavy: B1 heavy with K52D, G76D
chain: B1 chain
light: B1 light
notes: one-arm antibody
Consider B21, for which the “ratio of amounts bound” value worked out at 0.25.

B22: CE115HA000 H35G one-arm antibody (antibody, human IgG1, kappa, L234A L235A, N297A, name in Kabat numbering)
heavy: B1 heavy with H35G, G76D
chain: B1 chain
light: B1 light
notes: one-arm antibody
Turning to B22, the “ratio of amounts bound” value is 0.22.

B23: CE115HA000 H35R one-arm antibody (antibody, human IgG1, kappa, L234A L235A, N297A, name in Kabat numbering)
heavy: B1 heavy with H35R, G76D
chain: B1 chain
light: B1 light
notes: one-arm antibody
On to B23, for which the “ratio of amounts bound” value was 0.14.

B24: CE115HA000 K52E one-arm antibody (antibody, human IgG1, kappa, L234A L235A, N297A, name in Kabat numbering)
heavy: B1 heavy with K52E, G76D
chain: B1 chain
light: B1 light
notes: one-arm antibody
On to B24, for which the “ratio of amounts bound” value was 0.26.

B25: CE115HA000 G65D one-arm antibody (antibody, human IgG1, kappa, L234A L235A, N297A, name in Kabat numbering)
heavy: B1 heavy with G68D, G76D
chain: B1 chain
light: B1 light
notes: one-arm antibody
With B25, the “ratio of amounts bound” value was 0.76.

B26: CE115HA000 H35D one-arm antibody (antibody, human IgG1, kappa, L234A L235A, N297A, name in Kabat numbering)
heavy: B1 heavy with H35D, G76D
chain: B1 chain
light: B1 light
notes: one-arm antibody
For the molecule B26, the “ratio of amounts bound” value turned out to be 0.2.

B27: CE115HA000 I51E one-arm antibody (antibody, human IgG1, kappa, L234A L235A, N297A, name in Kabat numbering)
heavy: B1 heavy with I51E, G76D
chain: B1 chain
light: B1 light
notes: one-arm antibody
Turning to B27, the “ratio of amounts bound” value worked out at 0.55.

B28: CE115HA000 K52H one-arm antibody (antibody, human IgG1, kappa, L234A L235A, N297A, name in Kabat numbering)
heavy: B1 heavy with K52H, G76D
chain: B1 chain
light: B1 light
notes: one-arm antibody
For B28, the “ratio of amounts bound” value is 0.22.

B29: CE115HA000 I51D one-arm antibody (antibody, human IgG1, kappa, L234A L235A, N297A, name in Kabat numbering)
heavy: B1 heavy with I51D, G76D
chain: B1 chain
light: B1 light
notes: one-arm antibody
Consider B29, for which the “ratio of amounts bound” value was 0.29.

B30: CE115HA000 H35N one-arm antibody (antibody, human IgG1, kappa, L234A L235A, N297A, name in Kabat numbering)
heavy: B1 heavy with H35N, G76D
chain: B1 chain
light: B1 light
notes: one-arm antibody
Take B30: the “ratio of amounts bound” value turned out to be 0.35.

B31: CE115HA000 H35K one-arm antibody (antibody, human IgG1, kappa, L234A L235A, N297A, name in Kabat numbering)
heavy: B1 heavy with H35K, G76D
chain: B1 chain
light: B1 light
notes: one-arm antibody
In the case of B31, the “ratio of amounts bound” value came out at 0.15.

B32: CE115HA000 F29V one-arm antibody (antibody, human IgG1, kappa, L234A L235A, N297A, name in Kabat numbering)
heavy: B1 heavy with F29V, G76D
chain: B1 chain
light: B1 light
notes: one-arm antibody
On to B32, for which the “ratio of amounts bound” value stood at 0.36.

These data come from patent US20240270846A1 (published 2024).
